Article PMC8512817, “Domain Analysis and Motif Matcher (DAMM): A Program to Predict Selectivity Determinants in Monosiga brevicollis PDZ Domains Using Human PDZ Data” (Molecules, 2021)

Target: T1, DLG1-1 PDZ (DLG1 PDZ1, residues 220-317) (human, UniProt Q12959 220-317)
T1 construct: not shown: His tag, N-terminal, kept
Assay: fluorescence polarisation
Conditions: both partners purified

T1 sequence (Q12959 220-317): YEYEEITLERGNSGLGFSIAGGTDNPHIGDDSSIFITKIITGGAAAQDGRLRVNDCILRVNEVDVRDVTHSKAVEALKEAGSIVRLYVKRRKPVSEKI

| Binder | Ki [µM] |
| --- | --- |
| QSSSEA [GAIP peptide (QSSSEA)] | 980 ± 180 |
| WDETNL [BPIX peptide (WDETNL)] | 460 ± 140 |
| QSESRL [A9UP44 peptide (QSESRL)] | 39 ± 25 |
| ESESKV [GIRK3 peptide (ESESKV)] | 350 ± 20 |
| ASESKV [B1AR peptide (ASESKV)] | 44 ± 23 |
| SSRTRRETQL [HPV16 E6 peptide (SSRTRRETQL)] | 23 ± 5 |
| EDETAL [A9V7Z4 peptide (EDETAL)] | 460 ± 190 |
| QDETAL [A9UXE1 peptide (QDETAL)] | 190 ± 20 |
| PNQSVV [TYRP1 peptide (PNQSVV)] | 46 ± 21 |
